Paper PMC4242493, “Sequence specificity incompletely defines the genome-wide occupancy of Myc”

How the values were obtained:
Myc;MaxS = Myc;MaxS (human? (HeLa cDNA);human? (HeLa cDNA), UniProt P01106-1;P61244-2 1-439;1-151, |); test: EMSA; stoichiometric, 125 nM, silver stain; EMSA: 25 mM HEPES pH 7.6, 100 mM KCl, 1 mM DTT, 0.1 mM EDTA, 0.01% Triton, 30 min at room temperature; 6% polyacrylamide gel in 0.5X Tris/glycine; settings: protein: recombinant;recombinant; tags: C-terminal His-tag (pET21a);C-terminal His-tag (pET21a); copies: 1;1; label: unlabeled
Sequence of Myc;MaxS (P01106 16-454, chain 1 of 2): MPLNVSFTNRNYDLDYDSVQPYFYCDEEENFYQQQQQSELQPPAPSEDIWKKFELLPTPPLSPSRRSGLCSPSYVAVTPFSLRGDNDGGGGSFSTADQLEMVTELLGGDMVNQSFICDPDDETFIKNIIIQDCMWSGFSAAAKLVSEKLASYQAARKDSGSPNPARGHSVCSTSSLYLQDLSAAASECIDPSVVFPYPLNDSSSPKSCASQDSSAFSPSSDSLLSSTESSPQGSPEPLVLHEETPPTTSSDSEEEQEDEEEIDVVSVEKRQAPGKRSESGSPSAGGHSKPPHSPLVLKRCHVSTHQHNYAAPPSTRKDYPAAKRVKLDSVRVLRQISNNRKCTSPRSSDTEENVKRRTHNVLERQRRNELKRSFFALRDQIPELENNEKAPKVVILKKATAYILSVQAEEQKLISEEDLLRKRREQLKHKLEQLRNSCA
Sequence of Myc;MaxS (P61244 other isoform, or with tags, fused parts or gaps |, chain 2 of 2): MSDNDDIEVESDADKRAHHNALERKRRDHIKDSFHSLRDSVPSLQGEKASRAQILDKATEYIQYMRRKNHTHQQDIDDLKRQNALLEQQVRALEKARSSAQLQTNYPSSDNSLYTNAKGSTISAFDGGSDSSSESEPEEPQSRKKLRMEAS

Myc;MaxL [1] = molecular target: T1, Myc;MaxL (Homo sapiens;Homo sapiens, UniProt P01106-1;P61244 1-439;1-160, |); test: as above; settings: protein: recombinant;recombinant; tags: C-terminal His-tag (pET21a);C-terminal His-tag (pET21a); copies: 1;1; label: unlabeled
T1 sequence (P01106 16-454, chain 1 of 2): as the sequence (P01106 16-454, chain 1 of 2) above
T1 sequence (P61244 whole entry, chain 2 of 2): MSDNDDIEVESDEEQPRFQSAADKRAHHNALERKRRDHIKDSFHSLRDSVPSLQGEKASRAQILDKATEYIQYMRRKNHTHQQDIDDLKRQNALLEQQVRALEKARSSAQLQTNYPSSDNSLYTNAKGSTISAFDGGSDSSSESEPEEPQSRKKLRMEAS

Myc;MaxL [2] = molecular target: T1, Myc;MaxL; test: EMSA; 0.01 nM probe; EMSA: 25 mM HEPES pH 7.6, 100 mM KCl, 1 mM DTT, 0.1 mM EDTA, 0.01% Triton, 30 min at room temperature; 6% polyacrylamide gel in 0.5X Tris/glycine; settings: protein: recombinant;recombinant, tags: C-terminal His-tag (pET21a);C-terminal His-tag (pET21a), copies: 1;1
MaxL = MaxL (human? (HeLa cDNA), UniProt P61244 1-160); test: EMSA; 0.01 nM probe; MaxL homodimer; EMSA: 25 mM HEPES pH 7.6, 100 mM KCl, 1 mM DTT, 0.1 mM EDTA, 0.01% Triton, 30 min at room temperature; 6% polyacrylamide gel in 0.5X Tris/glycine; settings: protein: recombinant; tags: C-terminal His-tag (pET21a); chain copies: 2; unlabeled in silver-stained EMSA
Sequence of MaxL (P61244 whole entry): as the sequence (P61244 whole entry, chain 2 of 2) above

B1: GTGGTG probe (26 bp) (dsDNA)
DNA 1: GAGGGATCGGGTGGTGGGATCGGAGG
DNA 2: CCTCCGATCCCACCACCCGATCCCTC
Question: What does the source list for B1?
Answer: binding result (Myc;MaxS): binds; binding result (Myc;MaxL [1]): binds

B2: ATCTAG probe (26 bp) (dsDNA)
DNA 1: GAGGGATCGGATCTAGGGATCGGAGG
DNA 2: CCTCCGATCCCTAGATCCGATCCCTC
Question: B2 was tested. Which Kd (Myc;MaxL [2]; label: 32P 5' end-labeled on both strands (Kd)) did it give?
Answer: 20 nM

B3: CACGTG probe (26 bp) (dsDNA)
DNA 1: GAGGGATCGGCACGTGGGATCGGAGG
DNA 2: CCTCCGATCCCACGTGCCGATCCCTC
Question: What does the source list for B3?
Answer: Kd (Myc;MaxL [2]; unlabeled in silver-stained EMSA): 0.1 nM; Kd (MaxL): 0.4 nM
